Drawing on a protein production outcome set (Wang et al. 2014), this text covers protein production for 21 sequences.

The nature of this series: label from the status in PepcDB records.
Turning to “MALGHRCRRFGTDKITSRPLRRQPQENPMNIKQLITAALIASAAFATQAAPQKPVSAAQTAQHSAVWIDVRSEQEFSEGHLHNAVNIPVDQIVRRIYEAAPDKDTPVNLYCRSGRRAEAALQELKKAGYTNVANHGGYEDLLKKGMK”, the protein production result is recorded as “failed”.

For “MTTWKELTDNNPAHSENYAQRWRNLAAAGNDIYGEARLIDAMAPRGAKILDAGCGQGRIGGYLSKQGHDVLGTDLDPILIDYAKQDFPEARWVVGDLSVDQISETDFDLIVSAGNVMGFLAEDGREPALANIHRALGADGRAVIGFGAGRGWVFGDFLEVAERVGLELENAFESWDLKPFVQGSEFLVAVFTKK”, the protein production result is given as “not failed”.

In the case of “MSERNPILITGAAGEVGGVSRTTVDMLLEQGHPVRAFVRQDDERAHALRQAGAEVFVGDLLTIADVSAALKGVRRIYFSMSLSPYYTDAVSLMAAAARAQGDIEVFVNISEYEQSFMTFEKMTAPEEERRAWLGGLVANWSPQQRAHWVAEQVLDWSGLPTVNIRAAMFVENPLMTWLALEPLANGELRLPFGHHRLAPIAGYDVAELCVKILADPAPHISKSYDLNGPELKDMHGFAEDYAAALGRQVTYVPEDVETWNETYVDTVLGALPHTAEHLKTLTRLMGGGGYRGVTDQLETLLGRPPKTVRWALENHPRIRKLASA”, the protein production result was “failed”.

For “MNSHCSHTFITDNRSPRARRGHAMSTLHKVKAYFGMAPMEDYDDEYYDDRAPSRGYARPRFDDDYGRYDGRDYDDARSDSRGDLRGEPADYPPPGYRGGYADEPRFRPREFDRAEMTRPRFGSWLRNSTRGALAMDPRRMAMMFEDGHPLSKITTLRPKDYSEARTIGERFRDGSPVIMDLVSMDNADAKRLVDFAAGLAFALRGSFDKVATKVFLLSPADVDVSPEERRRIAETGFYAYQ”, the protein production entry is listed as “failed”.

Turning to “GGRRWNWVQSWPVWKYFKEYFPICLVKTQDLDPGHNYIFGFHPHGIFVPGAFGNFCTKYSDFKKLFPGFTSYLHVAKIWFCFPLFREYLMSNGPVSVSKESLSHVLSKDGGGNVSIIVLGGAKEALEAHPGTFTLCIRQRKGFVKMALTHGASLVPVFSFGENDLYKQINNPKGSWLRTIQDAMYDSMGVALPLIYARGIFQHYFGIMPYRKLIYTVVGRPIPVQQILNPTSEQIEELHQTYLEELKKLFNEHKGKYGIPEHETLVFK”, the protein production result was “failed”.

As for “MIDEWPVPTAAAAVIGPSGVLATHGDDAKPFALASVTKLLVARAAQVAIEEGVVELDTPAGPDGSTVRHLLAHTSGVAMNSADTVAQVGQRRVYSNFGFGLLAHAIEDAAEIEFGRYLTEAVFEPLGMSTSKLLGGADAAGFGVTSTVSDLARFAGDLLRPALVSQQMHDEATSVQFPGVNGVLPGFGSQRPNDWGLGFEIRDGKTPHWTGSSNSPRTFGHFGQSGTFLWVDPVADLALLVLTDRDFGDWTYPLWPAISDGVLREIGTHLEHHHHHH”, the protein production result is “failed”.

For “MKHIHIIGIGGTFMGGIAAIAKEAGFKVSGCDAKMYPPMSTQLEALGIGVHEGFDAAQLEEFQADIYVIGNVARRGMDVVEAILNRGLPYISGPQWLAENVLHHHWVLGVAGTHGKTTTASMLAWVLEYAGLAPGFLIGGVPENFGVSARLPQTPRQDPNSKSPFFVIEADEYDTAFFDKRSKFVHYRPRTAVLNNLEFDHADIFADLGAIQTQFHHLVRTVPSEGLIVCNGQQQSLQDTLDKGCWTPVEKFGTGHGWQIGEVNADGSFDVLLDGKKAGHVAWDLMGGHNRMNALAVIAAARHAGVDVQTACEALGAFKNVKRRMEIKGTANGITVYDDFAHHPTAIETTIQGLRQRVGGARILAVLEPRSNTMKLGTMKSALPASLKEADQVFCYAGGADWDVAEALAPLGCRLRVGKDFDTFVAEIVKNARTGDHILVMSNGGFGGIHTKLLDALR”, the protein production entry is on record as “not failed”.

With “MFGPFKPAPHIAELPAEKIDSTYKRLRWQVFAGIFFGYAAYYFVRANFDLAQPGLIQAGLYSKAELGVIGSAAGLAYGLSKFVMAGMSDRSNPRVFLPFGLLLSGLCMTLMGLFPWATSGIAIMWVMIFLNGWFQGMGWPPCGRTMVHWWSKSERGTIVSIWNTAHNIGGMVPGAMVLLASAIFFSTHGIEAQAKDVWQQSLYFPGIAAMIFAIPVYFVMRDTPQSCGLPSIEKWRNDYPDDYNEKTYENDLTAKEIFVTYVLKNKLLWYIAIANVFVYLIRYGVLKWSPVYLSEVKHFNIKGTAWAYTIYELAAVPGTLLCGWVSDKVFKGKRGLTGFIFMILTTAAVVAYWMNPATPEAELANYSAWYENPYQLTDFVLMTLIGFLIYGPVMLIGLHALELAPKKAAGTAAGFTGLFGYLGGTVSASAVIGWAAQHYGWDGGFYVMIGGGVLAVLLLLIVMVEEGKHKAKLGDTYGTK”, the protein production entry is given as “failed”.

As for “MSSERIVELIKEIYLDFRKGNFKEALVKSEEAHSLDFDNIEILTALKSSVYWNGQVESLDRIGQDYEKAEFLIREWNNFAGRYLKKMGCNFLQGRNSIKYFVFQTCLYIYKNIYKMHPENLDLLIKIAKSYKGMGNYERAINVFLQILGDFKDNSDVVAELADSYALVDEIKEAKVLFREAFFINPQKIDIYSLESDMILRLIDLIKSDRNISDDLIKEWIPVYGSLNGVFNIKRELRPIELGQLKQSVYSLRNELKEKSYRSINESILLPRLINKYFWLIDHYVRIKEDRARIDEILLYIKEIDLGIYQQYVN”, the protein production result was “failed”.

In the case of “MNDGRMLGLFTFIIMIISIISQIIALSASQRNIYLGIRIPQEEINNTKIKAIGKRYIWSNLLLGIPIAALLSYCVYKINNDILYLAAIILFMAISFLLYYYYNRKILKIKKEEGWLKTKKQEIVIDTSFAKRKSERMVAGSRWFLLSLIFIVICLIVNVKQYPNIPYRYPTHWDINGRPNAYSLKSYMTIFSMPINQLILIAVMFFSYKITFWSKNELDGRNPKDSGERNIKFRNVWAIYAIVVNFFLQIIFLIQDFQIMHIVNTNPKFIIIAVITMTIVVICSSLIISIKVGQGGSRLKTRGNKSEFGINMRDDDKYWRLGNLFYCNKNDPSIFVQKRFGIGWTVNVGNKFGVLFYVLIIVFLIICIAISR”, the protein production entry is recorded as “failed”.

As for “MALKLGVIGTGAIGQDHIRRCSKTLVGSQVVAVTDINLEQAANVVRDLGIGAEVYADGHALIAAPDVEAVLVCSWGPSHEEYVLAAIAAGKPVFCEKPLAVTAEGCRHIVEAEIASGRRLVQVGFMRPYDQGYRALKSVIDSGQIGEPLMLHCAHRNPRVGENYKTDMAITDTLIHELNVLRWLLNDDYVSVQVVFPRKSGKALAHMKDPQIVMLETARGTRIDVEVFVNCQYGYDIQCEVVGESGIARLPEPSQVQLRREAKLSNAILMDWKDRFIAAYDVELQDFIDGVKAGTIYGPSAWDGYAAAVAADACVLAQNNGAVVPITLAMRPAFYA”, the protein production entry is “failed”.

Regarding “MSHTEAATVHSTAPASHPVRIALIGAGRIGSNHAEIVARLVPGASLVAVSDPVGESAQRLATTLGASLATTTVDDVLTSDEVDAVLITAPARSHTDLVVAAAAAGKHVFVEKPMAVTLADADRAIAAAADAGIVLQVGFNRRFAPGFAAARAAIDAQKVGAPQLLRSLTRDPGPYTADPARVPQWTIFLETLIHDFDTLCFLNPDARPVRVHAVADALVRPDAKGAGHLDTAVVTVQFDNGAIATAEASFSALYGYDVRAEVFGSGGMITAGSGLSTDMTYYGPDGMHADTARRDTDLLHSAYLGELTAFVDAIRTHTPAVVTGQDARTALSIALAAIRSVETGSAVDLDG”, the protein production entry was “failed”.

Regarding “MRSGRPLYWIFLLLAFSLLAVLVYVCVAVIPDLRNHPNARRSLKRVRSTLDPQREQRDASRRLDVADTPENRRQLAETLLARGDYAQAAEHYQGALRGLYRDDPHLMLGLAKAQFGLGQPQQTRQTLDALIAANPSFRSHDGHLLYARAVEGSGDTDAALHEYDTLAQGYPGEEARVRYAQLLQRIARNDQARAVYEQVLRHAAASPKHYQREQRAWVDLARKGLRELDTGA”, the protein production entry is recorded as “failed”.

“LEYQKSQPPQPGDKFVSVVSQFITVASFSFSDVEDLLAEAKDLFTKAVKHFGEEAGKIQPDEFFGI”: the protein production entry is recorded as “failed”.

For “GMEGLVMNTRRALFADWRVREAMLLAFDFDLINRTLTGGAEPRIASYFSNSALGMEAGAPATGRERALLEPFAADLLPGTLDGYALPATHGASNRGNLRKAARLLSEAGWRIEDGMLEGPGGTPFAFEILLPQGADAMIAASIIYRQALTRLGISARITTVDPAQFKQRVDNQDFDMTSFLRSLTLSPGNEQLLYWSAEDKDLPGSRNLMGMESPAAEAVIRHMLATDDAEEFQASVRALDRVLTAGRYVIPMWYSR”, the protein production result is “failed”.

On to “MSDKFHILLLNGPNLNLLGTREPEKYGYTTLAEIVSQLEIQAQGMDVALSHLQSNAEHALIDSIHQARGNTDFILINPAAFTHTSVALRDALLGVQIPFIEIHLSNVHAREPFRHHSYLSDIAVGVICGLGADGYNFALQAAVNRLSKSN”, for which the protein production result is on record as “not failed”.

“MGEPNLQLSLLYVIAIFTSAILLSARMSLLITLLAVIAVIYQRFVGSLFDYNNLNTIGNSALLAFLFFVVHRIGQIAVQRFKLLEALTFHQSIELYQLQNINRYILEQIEEGYLVLDENYDIVVSNPAACSLLGIPPQFANEKYPLAKWHADLFEILKFGDLKEGDRFIFESRLSAYSINIKVQHLLVPQQTLTLLILQDAQQINQQAQQLKLAALGQLSASIAHEIRNPLAAIVQANELLKDSDPEQQNTLRHMIGKQTKRIDSIVQDTLGLARSERTHPIQIDVKHFIDTLLEEDLFDVKHSIQLKISDSSLKFLFDEKQLRQVMINLVRNALRHNATDSPYITINIHSQTNKIYIDVIDYGEGVSKRDISQLFKPFFSTEINGTGLGLYLSHSFCEANHAKLTYVEQKQGACFRIECPIIY”: the protein production result is reported as “failed”.

In the case of “MKRPELIIFDWDGTLFDSVGQIVASLRFAADQFNQPLTDEAAQSIIGLGLPEVMQALFPQVPHLHQEILVHYGEHYVENSKHDAWFEGVAELLHDLKAQGIKLAVATGKSRRGLDRVLNKTQSHELFDITRAASETMSKPHPRMLEEILQVTQVEAQHAIMVGDSSYDLEMAKNIDMPRVGVSYGVHEVDVLQRYEPLTIVDSIAELHHYLTQLLQEKIHA”, the protein production entry is on record as “failed”.

Consider “MERKINRREKEKEYEGKHNSLEDTDQGKNCKSTLMTLNVGGYLYITQKQTLTKYPDTFLEGIVNGKILCPFDADGHYFIDRDGLLFRHVLNFLRNGELLLPEGFRENQLLAQEAEFFQLKGLAEEVKSRWEKEQLTPRETTFLEITDNHDRSQGLRIFCNAPDFISKIKSRIVLVSKSRLDGFPEEFSISSNIIRFKYFIKSENGTRLVLKEDNTFVCTLETLKFEAIMMALKCGFRLLTSLDCSKGSIVHSDALHFIK”, for which the protein production entry is “not failed”.

For “MPSPSGGWGCGGTWARGVDGARLFSIHHQAVRPNLSTISPPKEPPMIEVRHLCKSFARKPAVQDISFSIPAGEIVGYLGPNGAGKSTTIKVLTGLLVPDSGEVRVGGLVPWKQRRQHVARLGAVFGQRTTLWWDLPVRESLELLRHVYRVPAARFAENLAGFTELLELGPFLNTPARALSLGQRMRADLAAALLHDPELLFLDEPTVGLDVVAKERIREFVKAVNAERGVTVLLTTHDLGDVERLARRVMMIDTGRLLFDGPLAELQARYGGERELWVEFEKAPAQPALPGLTLLGQDGPRVRYGFSGAAAAPIAQVTALAPVRDLAVKEPEVEATIRRIYEGNLLGSRSVREGLEHHHHHH”, the protein production entry is given as “failed”.

As to “MLSYYGRLSSEVYDIDKPIDHSFRDVEFYIDRLNLCRGHILEPATGTGRVLVPLLEKGFKVDGFDSSKDMLNICRDNCRKKGLNPKLFEAKMESFIQDTRYDAIIVPAGTFLLLHQRADSIRALQNFHKHLCSGGRLIIDILMQTDFSTGTVSTRTWVCSNGDLITLESKVVEVDYINQYTVSHNRYEKWREGVLIQTELERFPLRWYGLEEFKLILESTGFKDIVISSDYKFGQYPSNVKDVITFEAVAIN”, the protein production result is on record as “failed”.
